Reference: US12152088B2, “Co-assembly peptides, nanostructures, and methods of making and using the same” (University of Florida Research Foundation, Incorporated, priority 2016, dated 2024)

Experiments:
Format in all cases: physicochemical
[1] = Circular dichroism (secondary structure); conditions: peptide incubated alone; CD maxima at 220 nm, minima at 200 nm
Experimental: Circular Dichroism. Circular Dichroism was performed on an AVIV 202 spectrometer. Peptides were prepared in 1× PBS at 500 μM, unless stated otherwise. Samples were run 3 times, averaged, and converted to mean residue ellipticity. All data reported was for dynode values <500 V.

[2] = Macroscopic hydrogel formation; conditions: aqueous buffered solutions of 12 mM
Experimental: Macroscopic Hydrogel Formation. A 12 mM stock solution of CATCH(−) was prepared by dissolving dry peptide in 1× PBS and adjusting the pH to ˜7.6 with ammonium bicarbonate (Fisher). A 12 mM stock solution of CATCH(+) was prepared by dissolving dry peptide in 1×PBS and adjusting the pH to ˜7.2 with hydrochloric acid (0.5 N Fisher). CATCH peptide stock solutions were combined at a 1:1 (v/v) ratio in a 0.2 mL glass vial (Thermo), and the vial was gently swirled for 2 min until the hydrogel formed. The hydrogel was stained with red food coloring to aid visualization. Hydrogel images were recorded using a digital still camera.

[3] = Protein incorporation / retention in macroscopic hydrogels
Experimental: Protein Incorporation into Macroscopic Hydrogels. Hydrogels were prepared as described above, except 1.5 μM CATCH(−)GFP or mCATCH(−)GFP was added to the 12 mM CATCH(−) solution. Immediately after hydrogel formation, fluorescence was visualized by placing the glass vials on a SafeImager 2.0 transilluminator (Invitrogen) and recording images with a digital still camera. 800 μL of PBS was then carefully overlaid on top of hydrogel. The samples were then incubated for 48 hours to evaluate the protein incorporation within the hydrogel. At various time points, fluorescence in the buffer supernatant was visualized by placing the glass vials on a SafeImager 2.0 transilluminator (Invitrogen) and recording images with a digital still camera. At the end-point, buffer supernatant was carefully removed by decanting and fluorescence was visualized by placing the glass vials on a SafeImager 2.0 transilluminator (Invitrogen) and recording images with a digital still camera.

[4] = Nanofiber sedimentation, fusion protein integration into CATCH nanofibers; conditions: 500 μM CATCH(4/4) or CATCH(6/6) nanofibers
Experimental: Briefly, 500 μM CATCH(4/4) nanofiber sedimentation in the presence of (FIG. 42A) ThT, (FIG. 42B) CATCH(6-)GFP, (FIG. 42C) mCATCH(6-)GFP. […] 500 μM CATCH(6/6) nanofiber sedimentation in the presence of (FIG. 42E) ThT, (FIG. 42F) CATCH(6-) GFP, (FIG. 42G) mCATCH(6-)GFP.

| Substance | secondary structure [1] | flow behaviour / hydrogel formation [2] | hydrogel fluorescence after incubation ([3]; CATCH hydrogels under volumetric excess of 1× PBS for 48 h) | GFP in the buffer layer over hydrogels ([3]; excess buffer, up to 48 h) | integration into CATCH nanofibers [4] |
| --- | --- | --- | --- | --- | --- |
| Ac-QQKFKFKFKQQ-Am (Ac-QQKFKFKFKQQ-NH2) [CATCH(+)] | predominantly random coil | free flowing | – | – | – |
| CATCH(−)GFP: recombinant fusion of CATCH(−) and superfolder green fluorescent protein (GFP) | – | – | retained their fluorescence | no GFP was detected | – |
| Ac-EQEFEFEFEQE-Am (Ac-EQEFEFEFEQE-NH2) [CATCH(−)] | predominantly random coil | free flowing | – | – | integrates into both CATCH(6/6) and CATCH(4/4) nanofibers |
